Patent US20250043302A1, “MUTATED HYDROXYPHENYLPYRUVATE DIOXYGENASE POLYPEPTIDE, AND CODING GENE AND USE THEREOF” (BEIJING DABEINONG BIOTECHNOLOGY CO., LTD., priority 2021, published 2025)

Legend:
[1] = system: Arabidopsis thaliana T1 plants; experiment: Mesotrione tolerance of transgenic Arabidopsis thaliana T1 plants (spray, bleached leaf area grade, damage score); assay type: in vivo; parameters: Scores: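 damage score 0-100 computed as Σ(N×S)/(T×M)×100 over grades 0-3 with higher meaning more damage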; settings: for Resistance evaluation / Classification and statistics of the grade of pesticide damage: Grade 0 / Classification and statistics of the grade of pesticide damage: Grade 1 / Classification and statistics of the grade of pesticide damage: Grade 2 / Classification and statistics of the grade of pesticide damage: Grade 3 / Scores: 7 DAT, Table 3; for Classification and statistics of the grade of pesticide damage: Grade 0 / Classification and statistics of the grade of pesticide damage: Grade 1 / Classification and statistics of the grade of pesticide damage: Grade 2 / Classification and statistics of the grade of pesticide damage: Grade 3: number of plants; for Scores: pesticide damage score 0-100
Summary of the method: (§1)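 Damage graded 0–3 from the proportion of bleached leaf area 7 days after spraying. Plants were glufosinate-selected T1 lines, 18 days after sowing, plus vector and wild-type controls. Rates: mesotrione 52.5–420, isoxaflutole 35–280, topramezone 25–200 g ai/ha, with water (0×).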

[2] = system: Arabidopsis thaliana T1 plants; experiment: Isoxaflutole tolerance of transgenic Arabidopsis thaliana T1 plants (spray, bleached leaf area grade, damage score); assay type: in vivo; settings: for Grade 0 (classification and statistics of the grade of pesticide damage; number of plants) / Grade 1 (classification and statistics of the grade of pesticide damage; number of plants) / Grade 2 (classification and statistics of the grade of pesticide damage; number of plants) / Grade 3 (classification and statistics of the grade of pesticide damage; number of plants): 16 plants;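 for Scores: Weighted damage index from 0 to 100 where higher means more damage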
Summary of the method: as §1

[3] = mesotrione 210 g ai/ha (two-fold field concentration)
[4] = isoxaflutole 140 g ai/ha (2x field concentration), Arabidopsis thaliana T1 plants
[5] = isoxaflutole 280 g ai/ha (4x field concentration), Arabidopsis thaliana T1 plants

B1: AsHPPDm-F383W-02: nucleotide sequence encoding Avena sativa HPPD with F383W; vector DBN11729 (nucleic acid)
DNA: ATGCCACCTACTCCAGCTACAGCTACTGGTGCTGCTGCTGCTGCCGTTACTCCTGAGCACGCTGCCAGGTCATTCCCCAGGGTGGTTCGCGTGAACCCCAGATCTGATAGGTTCCCAGTTCTGAGCTTCCACCATGTTGAGCTGTGGTGCGCTGATGCTGCTTCTGCTGCTGGCAGGTTCTCTTTCGCTCTTGGTGCTCCACTCGCTGCTAGATCTGATCTGTCTACAGGAAATAGCGCTCATGCCTCACTCCTGCTTCGCTCAGGTGCTTTGGCCTTCCTCTTCACCGCTCCATATGCTCCCCCACCTCAGGAGGCTGCTACTGCTGCTGCTACAGCCTCCATTCCAAGCTTCTCAGCTGATGCCGCTAGAACCTTCGCTGCTGCTCATGGACTTGCCGTGAGGTCTGTTGGTGTTCGCGTGGCTGATGCTGCTGAGGCTTTCAGAGTTTCCGTTGCCGGCGGAGCTAGGCCAGCTTTCGCTCCTGCTGATTTGGGACATGGTTTCGGCCTGGCTGAGGTTGAGCTTTACGGTGACGTGGTTCTCCGCTTCGTGTCTTACCCAGATGAGACTGACCTGCCTTTCCTTCCCGGCTTCGAGAGAGTTTCCTCTCCTGGTGCCGTGGATTACGGCCTGACAAGGTTCGACCACGTGGTTGGAAACGTTCCCGAGATGGCTCCAGTGATCGATTACATGAAGGGCTTCCTTGGATTCCATGAGTTCGCCGAGTTCACTGCTGAGGACGTGGGAACCACTGAGTCCGGTTTGAACTCTGTGGTTCTCGCCAACAATTCTGAGGCTGTTTTGCTCCCTCTGAATGAGCCTGTGCATGGAACCAAGAGGAGAAGCCAGATTCAAACTTACCTGGAGTACCACGGTGGCCCTGGAGTTCAGCATATCGCCCTTGCTTCTAATGATGTGTTGCGCACACTCAGAGAGATGCGCGCCAGAACCCCCATGGGAGGTTTCGAGTTCATGGCCCCACCACAGGCTAAGTACTACGAGGGCGTTAGAAGGATTGCTGGAGACGTGTTGAGCGAGGAGCAGATCAAGGAGTGCCAAGAGCTGGGTGTTCTTGTGGATAGGGATGACCAGGGCGTTCTGCTTCAAATTTTCACTAAGCCAGTGGGCGACCGCCCTACATTCTGGCTTGAGATGATTCAAAGAATCGGCTGCATGGAGAAGGATGAGGTTGGACAGGAGTACCAAAAGGGCGGATGCGGTGGCTTCGGAAAGGGTAACTTCAGCGAGTTGTTCAAGTCAATCGAGGACTACGAGAAGAGCCTCGAGGTGAAGCAGTCAGTGGTTGCCCAAAAGTCCTGA
modifications: AsHPPDm-F383W-02 Nucleotide Sequence
notes: vector DBN11729
[1]; in vivo
  tolerance to mesotrione (in words): different degrees of tolerance
[1]; [3]
  Resistance evaluation: moderately
  Classification and statistics of the grade of pesticide damage: Grade 0: 4
  Classification and statistics of the grade of pesticide damage: Grade 1: 10
  Classification and statistics of the grade of pesticide damage: Grade 2: 1
  Classification and statistics of the grade of pesticide damage: Grade 3: 1
  Scores: 31
[1]; mesotrione 420 g ai/ha (4×)
  Resistance evaluation: poorly resistant (poorly resistant plants (scores 34-67))
  Classification and statistics of the grade of pesticide damage: Grade 0: 0
  Classification and statistics of the grade of pesticide damage: Grade 1: 2
  Classification and statistics of the grade of pesticide damage: Grade 2: 14
  Classification and statistics of the grade of pesticide damage: Grade 3: 0
  Scores: 63
[1]; mesotrione at four-fold field concentration
  tolerance to mesotrione (resistance class): poorly-resistant
[1]; mesotrione at two-fold field concentration
  tolerance to mesotrione (resistance class): moderately-resistant
[2]; in vivo
  tolerance to isoxaflutole (in words): different degrees of tolerance
[2]; [4]
  Resistance evaluation: Moderately
  Scores: 21
  Grade 0 (classification and statistics of the grade of pesticide damage; number of plants): 6
  Grade 1 (classification and statistics of the grade of pesticide damage; number of plants): 10
  Grade 2 (classification and statistics of the grade of pesticide damage; number of plants): 0
  Grade 3 (classification and statistics of the grade of pesticide damage; number of plants): 0
[2]; isoxaflutole 140 g ai/ha (2×), 7 DAT, Table 2
  Resistance evaluation: moderately
[2]; [5]
  Resistance evaluation: Poorly resistant
  Scores: 42
  Grade 0 (classification and statistics of the grade of pesticide damage; number of plants): 4
  Grade 1 (classification and statistics of the grade of pesticide damage; number of plants): 4
  Grade 2 (classification and statistics of the grade of pesticide damage; number of plants): 8
  Grade 3 (classification and statistics of the grade of pesticide damage; number of plants): 0
[2]; isoxaflutole 280 g ai/ha (4×), 7 DAT, Table 2
  Resistance evaluation: poorly resistant (poorly resistant plants (scores 34-67))
[2]; isoxaflutole at four-fold field concentration
  tolerance to isoxaflutole (resistance class): poorly-resistant
[2]; isoxaflutole at two-fold field concentration
  tolerance to isoxaflutole (resistance class): moderately-resistant
[2]; number of plants, isoxaflutole 140 g ai/ha (2×), 7 DAT, Table 2
  Classification and statistics of the grade of pesticide damage: Grade 0: 6
